Kd, koff and kon data for 2 molecules are collected here from US20220267451A1.

The test deals with recombinant IGF-1R extracellular domain (ECD) (UniProt P08069). The experiment in a line: SPR; antibody captured by immobilized anti-Fc, IGF-1R-ECD as analyte, global fit to single site model. On the technique in general: Surface plasmon resonance follows binding to a sensor surface in real time, without labels.

What is called Kd is the concentration at which binding is half-saturated. In general, koff refers to the rate constant with which the complex falls apart. In general, kon refers to the second-order rate constant of association. Regarding teprotumumab (antibody), the Kd came out at 2.2 nM, the koff was found to be 0.00039 s⁻¹ and the kon came to 180000 M⁻¹ s⁻¹.

B1: VRDN-1100 (antibody, V domains shown)
VH: QVQLVQSGAEVVKPGASVKLSCKASGYTFTSYWMHWVKQRPGQGLEWIGEINPSNGRTNYNQKFQGKATLTVDKSSSTAYMQLSSLTSEDSAVYYFARGRPDYYGSSKWYFDVWGQGTTVTVSS
VL: DVVMTQTPLSLPVSLGDPASISCRSSQSIVHSNVNTYLEWYLQKPGQSPRLLIYKVSNRFSGVPDRFSGSGAGTDFTLRISRVEAEDLGIYYCFQGSHVPPTFGGGTKLEIKR
As to B1, the Kd worked out at 0.57 nM, the koff was 5.1e-05 s⁻¹ and the kon came out at 88000 M⁻¹ s⁻¹.
